Legend:
[1] = tested on: OVCAR3 human ovarian cancer cells; experiment: OVCAR3 cell line-derived subcutaneous xenograft; type: in vivo, Athymic Nude mouse; conditions: 20 mg/kg intraperitoneally once per week for three weeks
Description: An Athymic Nude mouse subcutaneous xenograft mouse model was generated with OVCAR3 human ovarian cancer cells. Animals were treated with humanized anti-STn ADCs (1 mg/kg, 2.5 mg/kg, 5 mg/kg), an isotype ADC (1 mg/kg, 5 mg/kg), Paclitaxel (20 mg/kg) or vehicle alone. ADCs were administrated intravenously once per week for four weeks. Paclitaxel was administrated intraperitoneally once per week for three weeks. […] At the end of the study, tumor tissues were collected and analyzed using immunohistochemistry for expression of STn.

MDA-MB-231-STn cells = experiment: Flow cytometry-based binding analysis; conditions: 0 to 300 nM, read-out: MDA-MB-231-STn cell binding [EC50 (nM)]
Description: Humanized IgG1 antibodies, prepared as described above, were subjected to characterization analysis including flow cytometry-based binding analysis with MDA-MB-231-STn cells; binding analysis by BSM ELISA; and glycan array analysis.
In flow cytometry-based binding studies, antibodies were screened over a concentration range of 0 to 300 nM, comparing binding to MDA-MB-231 cells with or without transfection-induced STn expression. Binding was determined using an anti-human APC conjugated secondary antibody and only live cells were considered (based on propidium iodide negative gating). 5,000 events were collected per sample on average. Data were analyzed using FlowJo software (Asland, Oreg.) and resulting APC means and % APC were obtained. […] Human isotype IgG1 antibody was used as an isotype negative control. Epidermal growth factor receptor (LA22, EMD Millipore, Billerica, Mass.) was used as a positive control.

[2] = tested on: MDA-MB-231 cells transfected for enhanced expression of STn (STn positive cells); experiment: ADC cytotoxicity assay ([…]-GLO); type: cell-based; conditions: MMAE-conjugated ADC versions; 72 hours; kill of STn positive cells
Description: MMAE-conjugated ADC versions of hSIA101, hSIA102, and hSIA103 were assessed in an ADC cytotoxicity assay using MDA-MB-231 cells (parental or transfected for enhanced expression of STn). Parental cells were grown in Eagle's Minimum Essential Medium (EMEM) supplemented with 10% FBS, lx Pen/Strep and 45 μg/mL gentamycin. STn positive cells were grown in the same media except with the addition of 1 mg/mL G418 for antibiotic selection. Cells were seeded separately (4,000 cells/well for parental cells or 2,000/well for STn positive cells) in 96-well plates using proper media described above. Cells were grown overnight. After 16-20 hours, cells were treated with varying concentrations of test antibodies in triplicate (50 nM to 0.012 nM) for 72 hours. Then, cells were analyzed using an ADC […]-GLO® luminescent cell viability assay kit (Promega, Madison, Wis.) to determine the amount of ATP present, an indicator of metabolically active cells. The assay uses a single reagent that is added directly to the cultured cells in serum-supplemented medium. The reagent lyses the cells and generates a luminescent signal proportional to the amount of ATP present. Luminescent signals were analyzed and used to calculate the half-maximal inhibitory concentration (IC50) values for each antibody used based on the concentration required to kill STn positive cells at half-maximal levels (see Table 9).

[3] = tested on: array glycans (AcSTn, GcSTn, Tn and others); experiment: Glycan array analysis; type: binding; set-up: key: Group 1: capable of binding AcSTn and GcSTn, if they bind to glycans 5, 6, 23 and 24; Group 2: capable of binding STn as well as some related structures that include an O-linkage to serine or threonine, if they bind to glycans 5, 6, 23, 24, 27 and 31; Group 3: capable of binding STn, but may also bind a broader set of related structures) if they bind glycans 5, 6, 23, 24, 17, 3, 19, 37, 27 and 31; Group 4: capable of binding to both AcSTn and GcSTn as well as the un-sialylated Tn antigen (therefore having broader specificity) if they bind to glycans 5, 6, 23, 24 and 47
Description: Optimized glycan arrays are utilized to test antibody affinity and specificity for multiple glycans in a single experiment. Glycan arrays include 71 chemically synthesized and well-defined glycans, most of which are Neu5Ac and Neu5Gc glycan pairs.
300 ml of epoxy blocking buffer is prepared by combining 15 ml of 2 M Tris buffer (pH 8) with 0.9 ml of 16.6 M ethanolamine and 284.1 ml of distilled water. The solution is brought to a final pH of 9.0 with HCl. The solution is filtered using a […] nitrocellulose membrane. The epoxy buffer solution as well as 1 L of distilled water are pre-warmed to 50° C. Glass slides are arranged in a slide holder and quickly submerged in a staining tub with the warmed epoxy blocking buffer. Slides are incubated in the epoxy blocking buffer for 1 hour at 50° C. with periodic shaking to deactivate epoxy binding sites. Next, slides are rinsed and blocked with PBS with 1% OVA at 25° C. for one hour. Serum samples with polyclonal antibodies (1:1000) or purified monoclonal antibodies (1 ug/mL), are diluted in PBS with 1% OVA and added to the glycan array for one hour at 25° C. After extensive washing, binding of antibodies are detected by incubating glycan microarray slides with Cy3-conjugated anti-mouse IgG (Jackson Immunoresearch, West Grove, Pa.) for one hour. Slides are then washed extensively, dried and scanned with a Genepix 4000B scanner (Laser at 100%; gain at 350; 10 μm pixels). Raw data from scanned images are extracted using the Genepix software and analysis of raw data is carried out.
Based on array analysis, antibodies are classified according to array glycan binding profile. Antibodies are classified as “Group 1” antibodies, capable of binding AcSTn and GcSTn, if they bind to glycans 5, 6, 23 and 24. Such antibodies are referred to as Pan-STn antibodies due to their ability to associate with a wider range of STn structures and the portion of STn indicated by the largest ellipse in FIG. 1A. […]

[4] = target: bovine submaxillary mucin (BSM); experiment: BSM ELISA, periodate-sensitive STn binding
Description: For BSM ELISA analysis, antibodies were screened over a concentration range of 0 to 100 nM on bovine submaxillary mucin (BSM) coated wells. A subset of wells were treated with mild periodate solution before antibody introduction to remove the side chain on terminal sialic acid residues (destroying the STn antigen). Optical densities of periodate and non-periodate-treated wells were determined and log transformed then fit to a nonlinear regression model to obtain a dose response curve. Optical density values obtained from periodate-treated wells were subtracted from non-periodate treated wells to obtain a periodate-sensitive STn binding curve and corresponding EC50 values.

[5] = tested on: Primary patient CRC samples; experiment: STn expression in primary patient CRC samples by flow cytometry; type: cell-based; conditions: % of viable CD45−/CD34− population
From the text: Primary patient CRC samples were probed by flow cytometry with hSIA101 and two commercial antibodies B72.3 and CC49. All 10 samples tested were STn positive. In the table, % STn is expressed as % of viable CD45−/CD34− population. STn expression was often more robustly identified with hSIA101 than the commercial antibodies.

CC(=O)O[C@H]1C(=O)[C@@]2(C)[C@H]([C@H](OC(=O)c3ccccc3)[C@]3(O)C[C@H](OC(=O)[C@H](O)[C@@H](NC(=O)c4ccccc4)c4ccccc4)C(C)=C1C3(C)C)[C@]1(OC(C)=O)CO[C@@H]1C[C@@H]2O [Paclitaxel]
Mean tumor volume ([1]; Day 1): 161.2 mm^3
Mean tumor volume ([1]; Day 4): 210.0 mm^3
Mean tumor volume ([1]; Day 9): 370.0 mm^3
Mean tumor volume ([1]; Day 12): 482.3 mm^3
Mean tumor volume ([1]; Day 15): 620.4 mm^3
Mean tumor volume ([1]; Day 18): 767.4 mm^3
Mean tumor volume ([1]; Day 23): 971.6 mm^3
Mean tumor volume ([1]; Day 26): 1133.0 mm^3
Mean tumor volume ([1]; Day 30): 1277.8 mm^3
Mean tumor volume ([1]; Day 31): 1385.2 mm^3

B1: hSIA103 (antibody, V domains shown)
VH: QVQLVQSGAEVKKPGASVKVSCKASGYTFTDHAIHWVRQAPGQGLEWMGYISPGNGDIKYNEKFKDRVTMTADKSSSTAYMQLRSLRSDDTAVYFCKRSLLALDYWGQGTLVTVSS
VL: DIQMTQSPSSLSASVGDRVTITCKASQDVGTNIAWYQQKPGKAPKVLIYSASTRHTGVPSRFSGSGSGTDFTLTISSLQPEDFATYFCQQYSSFPLTFGQGTKVEIK
EC50 (MDA-MB-231-STn cells): 0.3 nM
IC50 [2]: 1.3 nM
Array glycan binding profile [3]: Group 1
EC50 ([4]; periodate-sensitive STn binding curve, 0 to 100 nM): 1.8 nM

B2: B72.3: commercial anti-STn antibody (antibody, chains of the INN, looked up, V domains shown)
VH: QVQLQQSDAELVKPGASVKISCKASGYTFTDHAIHWAKQKPEQGLEWIGYISPGNDDIKYNEKFKGKATLTADKSSSTAYMQLNSLTSEDSAVYFCKRSYYGHWGQGTTLTVSS
VL: DIQMTQSPASLSVSVGETVTITCRASENIYSNLAWYQQKQGKSPQLLVYAATNLADGVPSRFSGSGSGTQYSLKINSLQSEDFGSYYCQHFWGTPYTFGGGTRLEIK
% STn+ ([5]; Sample 160093-2, Colon): 18.9%
% STn+ ([5]; Sample 160101-2, Colon): 5.8%
% STn+ ([5]; Sample 160102-2, Colon): 14.7%
% STn+ ([5]; Sample 160104-2, Colon Met to Liver): 46.6%
% STn+ ([5]; Sample 160115-2, Colon): 13%
% STn+ ([5]; Sample 160127-2, Colon): 14.4%
% STn+ ([5]; Sample 160149-1, Colon): 10.5%
% STn+ ([5]; Sample 160151-1, Colon): 6.8%
% STn+ ([5]; Sample 169068-1, Colon): 7.4%
% STn+ ([5]; Sample 1601666, Colon): 17.3%

B3: hSIA102 (antibody, V domains shown)
VH: QVQLVQSGAEVKKPGASVKISCKASGYTFTDHAIHWVRQAPGQGLEWIGYFSPGNDDIKYNEKFKVRATLTADKSSSTAYMELRSLRSDDTAVYFCKRSYYGDWGQGTLVTVSS
VL: DIQMTQSPSSLSASVGDRVTITCRASENIYSHLAWYQQKPGKAPKLLVYGATNLASGVPSRFSGSGSGTQFTLTISSLQPEDFATYYCQHFWGAPFTFGQGTKVEIK
EC50 (MDA-MB-231-STn cells): 0.1 nM
IC50 [2]: 2.6 nM
Array glycan binding profile [3]: Group 4
periodate sensitivity of binding in ELISA assays [4]: not periodate sensitive
